From patent US20210230288A1

Legend:
[1] = target: IgG Fc (control); test: phage ELISA on control (IgG Fc), lower end
[2] = target: IgG Fc (control); test: phage ELISA on control (IgG Fc), upper end
[3] = target: IgG Fc (control); test: phage ELISA on control (IgG Fc), 89 identical clones

B1: bb10 (SEQ ID NO 19), phage clone (designed binder)
chain: MGSWAEFKQRLAAIKTRLEALGGSEAELAAFLGEIWAFEMELAAYKGKGNPEVEALGREAAAIRMELQAYRHN
ELISA absorbance [1]: 0.056 OD
ELISA absorbance [2]: 0.125 OD
ELISA absorbance [3]: 0.067 OD
